According to publication PMC10495343:

Columns and labels:
collagen I [1] = biological target: collagen I (UniProt P02452); experiment: SPR
collagen I [2] = biological target: collagen I (UniProt P02452); experiment: SPR; Biacore X100; collagen I or collagen III immobilised by amine coupling on a CM5 chip (around 1000 RU); CBD-SA-IL-4 flowed 90 s (collagen I) or 30 s (collagen III) at 30 μl/min; Langmuir 1:1 fit with drifting baseline
collagen III = collagen III (UniProt P02461); experiment: as above
Chain of collagen III (P02461 154-1221): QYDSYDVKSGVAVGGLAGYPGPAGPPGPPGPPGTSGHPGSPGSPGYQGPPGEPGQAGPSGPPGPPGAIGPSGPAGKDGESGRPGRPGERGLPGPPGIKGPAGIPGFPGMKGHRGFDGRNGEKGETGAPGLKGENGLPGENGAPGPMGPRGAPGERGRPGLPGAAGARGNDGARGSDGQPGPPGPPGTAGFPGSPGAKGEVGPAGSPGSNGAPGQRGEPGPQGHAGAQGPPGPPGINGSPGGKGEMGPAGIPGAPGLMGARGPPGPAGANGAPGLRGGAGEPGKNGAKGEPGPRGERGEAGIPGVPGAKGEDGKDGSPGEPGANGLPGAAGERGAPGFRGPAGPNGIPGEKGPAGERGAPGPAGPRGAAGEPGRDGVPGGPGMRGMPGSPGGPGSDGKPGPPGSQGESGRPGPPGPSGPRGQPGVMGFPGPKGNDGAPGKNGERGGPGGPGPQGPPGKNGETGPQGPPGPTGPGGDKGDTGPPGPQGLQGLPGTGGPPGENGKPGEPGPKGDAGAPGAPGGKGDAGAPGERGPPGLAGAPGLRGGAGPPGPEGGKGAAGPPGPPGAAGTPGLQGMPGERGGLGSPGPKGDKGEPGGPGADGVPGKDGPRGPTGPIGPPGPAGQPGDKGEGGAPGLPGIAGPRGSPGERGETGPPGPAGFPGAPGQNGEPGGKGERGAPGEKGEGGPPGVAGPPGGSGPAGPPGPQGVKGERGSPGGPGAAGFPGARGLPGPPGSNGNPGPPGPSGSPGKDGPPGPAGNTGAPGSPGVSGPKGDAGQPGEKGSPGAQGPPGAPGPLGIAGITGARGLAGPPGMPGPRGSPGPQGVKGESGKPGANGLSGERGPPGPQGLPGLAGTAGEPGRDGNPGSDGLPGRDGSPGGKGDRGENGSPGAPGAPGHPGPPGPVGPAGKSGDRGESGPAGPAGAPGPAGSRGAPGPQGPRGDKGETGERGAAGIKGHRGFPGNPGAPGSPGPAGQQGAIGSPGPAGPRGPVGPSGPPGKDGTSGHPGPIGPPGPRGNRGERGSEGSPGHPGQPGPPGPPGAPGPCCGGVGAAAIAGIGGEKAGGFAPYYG

Chain of collagen I (P02452 162-1218, chain 1 of 2): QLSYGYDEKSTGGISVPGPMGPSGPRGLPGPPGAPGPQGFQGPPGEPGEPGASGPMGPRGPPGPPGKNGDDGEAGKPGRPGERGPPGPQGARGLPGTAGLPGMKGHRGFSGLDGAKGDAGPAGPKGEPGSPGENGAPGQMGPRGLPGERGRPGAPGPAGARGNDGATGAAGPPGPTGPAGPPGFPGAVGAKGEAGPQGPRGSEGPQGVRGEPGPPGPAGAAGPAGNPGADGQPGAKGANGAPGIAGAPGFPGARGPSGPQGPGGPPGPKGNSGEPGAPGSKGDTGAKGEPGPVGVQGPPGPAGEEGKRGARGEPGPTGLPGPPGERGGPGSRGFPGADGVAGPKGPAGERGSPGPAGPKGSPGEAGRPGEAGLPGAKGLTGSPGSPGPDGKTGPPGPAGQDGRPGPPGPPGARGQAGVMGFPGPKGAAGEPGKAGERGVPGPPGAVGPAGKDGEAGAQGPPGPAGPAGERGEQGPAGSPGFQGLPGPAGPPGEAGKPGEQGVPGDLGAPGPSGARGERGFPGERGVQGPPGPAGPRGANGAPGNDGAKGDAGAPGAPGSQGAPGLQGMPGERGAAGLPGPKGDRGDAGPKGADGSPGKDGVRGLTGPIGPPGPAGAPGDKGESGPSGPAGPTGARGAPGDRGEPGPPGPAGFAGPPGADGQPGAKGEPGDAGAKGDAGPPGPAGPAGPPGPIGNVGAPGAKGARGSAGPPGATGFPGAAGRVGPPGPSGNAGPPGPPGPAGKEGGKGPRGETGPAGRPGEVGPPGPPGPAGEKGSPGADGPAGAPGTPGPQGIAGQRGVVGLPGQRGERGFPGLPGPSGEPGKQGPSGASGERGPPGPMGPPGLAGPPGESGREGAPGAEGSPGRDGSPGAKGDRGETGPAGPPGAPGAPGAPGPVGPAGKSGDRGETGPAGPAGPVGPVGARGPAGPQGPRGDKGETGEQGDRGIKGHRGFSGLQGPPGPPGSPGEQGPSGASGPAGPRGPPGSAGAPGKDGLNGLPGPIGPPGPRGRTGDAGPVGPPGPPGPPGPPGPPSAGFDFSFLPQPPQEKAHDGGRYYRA
Chain of collagen I (P08123 80-1119, chain 2 of 2, further chain): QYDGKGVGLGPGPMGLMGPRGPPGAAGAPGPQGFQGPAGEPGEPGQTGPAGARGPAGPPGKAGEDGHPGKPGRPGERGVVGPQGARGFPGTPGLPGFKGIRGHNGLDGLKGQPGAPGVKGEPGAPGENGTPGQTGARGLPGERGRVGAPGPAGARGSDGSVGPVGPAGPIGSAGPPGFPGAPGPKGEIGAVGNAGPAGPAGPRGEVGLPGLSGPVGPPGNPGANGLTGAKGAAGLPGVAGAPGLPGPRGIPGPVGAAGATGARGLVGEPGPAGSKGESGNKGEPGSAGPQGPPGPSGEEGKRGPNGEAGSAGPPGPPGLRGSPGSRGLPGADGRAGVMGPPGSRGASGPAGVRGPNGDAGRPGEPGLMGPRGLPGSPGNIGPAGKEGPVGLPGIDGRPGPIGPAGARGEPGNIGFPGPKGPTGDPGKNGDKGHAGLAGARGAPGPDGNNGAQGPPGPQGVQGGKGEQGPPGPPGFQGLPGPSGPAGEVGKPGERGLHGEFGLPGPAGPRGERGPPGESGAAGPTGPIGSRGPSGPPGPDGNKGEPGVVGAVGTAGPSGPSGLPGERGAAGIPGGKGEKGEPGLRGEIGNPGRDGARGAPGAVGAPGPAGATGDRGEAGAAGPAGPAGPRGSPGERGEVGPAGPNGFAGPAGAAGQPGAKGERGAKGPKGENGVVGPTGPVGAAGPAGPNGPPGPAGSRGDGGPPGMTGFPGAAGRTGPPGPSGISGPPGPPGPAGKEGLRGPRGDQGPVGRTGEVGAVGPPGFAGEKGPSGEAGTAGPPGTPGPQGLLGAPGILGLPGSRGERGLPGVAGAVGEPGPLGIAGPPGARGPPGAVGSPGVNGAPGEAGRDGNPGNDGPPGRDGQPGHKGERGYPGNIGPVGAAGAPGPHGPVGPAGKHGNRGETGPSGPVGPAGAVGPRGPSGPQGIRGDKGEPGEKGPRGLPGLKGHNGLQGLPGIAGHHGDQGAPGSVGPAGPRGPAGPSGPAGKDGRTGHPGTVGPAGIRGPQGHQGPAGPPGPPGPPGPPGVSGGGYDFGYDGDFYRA

koff (collagen I [1]) [s⁻¹] | Kd (collagen I [2]) [µM] | Kd (collagen III) [µM] | Substance
0.0026 |  |  | collagen-binding, serum albumin-fused IL-4 variant (CBD-SA-IL-4) (from UniProt P04275)
 | 0.008 | 0.037 | collagen-binding, serum albumin-fused IL-4 variant (CBD-SA-IL-4)
